Reference: the nanobody polyreactivity screen of Harvey et al. (2022)

Test: yeast display, Sf9 membrane polyspecificity reagent, FACS + sequencing; frameworks hold sequencing errors
Method in brief: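 Sorting gates, low and high (top ~1%), were placed on anti-HA fluorescence to track expression and on streptavidin fluorescence to track reagent binding. A clone's polyreactivity label is taken from the gate it came out of. The reagent was 10% biotinylated, detergent-solubilized Sf9 membrane, applied for 1 hour at 4 °C to galactose-induced yeast display cells.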

Sequence	polyreactivity (PSR sort gate)
QLQLVESGGGLVQAGGSLRLSCAASGFIFGLYDMGWYREATGKERELVAAISWSGGSTYYADSVKGRFTISRDNAKNTVYLQMNSLKPADTAVYYCNKDLYADGQYNYDYWGLGTQVTVSS	low polyreactivity
QVQLVESGGGLVQAGGSLRLSCAASGSTFTYYTMGWYRQAPGKERELVAAISRTTGSTYYADSVKGRFTISRDNAKNTVYLQMNSLKPEDTAVYYCAADYYTRYQYGYWGQGTQVTVSS	low polyreactivity
QVQLVESGGGLVQAGGSLRLSCAASARTFSYYAMGLYRQEPGKERELVAAIRRSSGTTYYADSVKGRFTISSDNAKYSVYLQMNSLKPEDTADYYCNARSRRASIKRDYWGQGTQVSVSS	high polyreactivity
QLQLEESLVGLVQAGGSHPLSCAATGITFFTYTIGWYRQAPGKERELVARIRWDGGSTYYADSVKGRFTISRDNAKNTVYLQMNSLKPEDTAVYYCAADYPYSTYDYWGQGTQVTVSS	low polyreactivity
QVQLVESGGGLVQAGGSLRLSCAASGRIFYRYAMGWYRQAPGKERELVATITNGGSTNYADSVKGRFTISRDNAKNTVYLQMNSLKPEDTAVYYCAARLPGYYGIGDYWGQGTQVTVSS	high polyreactivity
QVQLVESGGGLVQAGGSLRLSCAASGGIFFPNAMGWYRQAPGKERELGAAISWSAGSTYYADSVKGRFTISRDNAKNTVYLQMNSLKPEDTAVYYCAAAGSNYTVWYGYYYWGQGTQVTVSS	low polyreactivity
QVQLVESGGGLVQAGGSLRLSCAASGRIFAANTMGWYRQAPGKEREFVAVIRGRGGSTYYADSVKGRFTISRDNAKNTVYLQMNSLKPEDTAVYYCAAYYKPYRERLYGYWGQGTQVTVSS	high polyreactivity
QVHLVESGGGLVQAGGSLRLSCAASGIIFYRYAMGWYRQAPGKESELVAAITRRTASTYYADSVKGRFTLSRDNAKNTVYLPLNSLKPEDSAVYYCSAYSPYSHIVDNFDYWGQGTQVTVSS	low polyreactivity
QVQLVESGGGLVQAGGSLRLSCAASGSTLLIYVMGWYRQAPGKERELVAAISKRSGSTYYADSVKGRFTISRDNAKNTVYLHMNSLKPEDTAVYYCATRPYVRWYDYWGQATQVTVSS	high polyreactivity
QVQLVESGGGLVQAGGSLRLSCAASGRIFTIYVMGWYRPAPGKERELVATITYSSGSTSYADSVKGRFTISRDNAKNTVYLQMNSLKPEDTAVYYCATDIHSVHNNRDKHDYDYWGQGTQVSVSS	low polyreactivity
QVQLVESGGGLVQAGGSLRLSCAASGLTFVYYAMGWYRQAPGKERELVAAISSGGSTYYADSVKGRFTISRDNAKNTVYLQMNSLKPEDTAVYYCAATYSSFRRYPGAHYRFGYWGQGTQVTVSS	high polyreactivity
QVQLVQSGAGLVQAGGSLRLSCAPSGFIFRRYDMAWYRQAPGKERELVAAITSSGGTTYYADSVKGRFTNSRDNAKNTVYLQMNSLKPEDTAVYYCNAVRGVYARRSDYWGQGTQVTVSS	high polyreactivity
QVQLVESGGVLVQAGGSLRLSCAASVFIFPYYAMGRYRQEPGKEMELVAAISSGGITNYADSVKGRFTISRDNSKNTVYLQMNSLKPEDTAVYYCAAKRRVGNFRYGYWGQGTQVTVSS	high polyreactivity
QVQLVESGAGLVQAGGSLRLSCAASGSTFDAYALGWSRPAPGKERELVAGISSGGSYEFADSVKGRFTISRDYAKNTVYVQMNSLKPEDTAVYYCAADSRQSDYYYQPTKFDYWGQGTQVTVSS	low polyreactivity
QVQLVESGGGLVQAGGSLRLSCAASGFIFTHYAMGWYRQAPGKERELVAAISRRGGSTYYADSVKGRFTISRDNAKNTVYLQMNSLKPEDTAVYYCAADNYDAWYWDYYWGQGTQVTVSS	high polyreactivity
QVQLVESGGGLVQAGGSLRLSCTASGSTFVAYAMGWYRQAPGKERELVAAITSSGGRTYYADSVKGRFTISRDNAKNTVYLQMNSLKPEDTAVYYCAAVTHGRYDWGQGTQVTVSS	high polyreactivity
QVQLVESGGGLVQAGGSLRLSCAASGSTFGVYAMGWYRQAPGKERELVAAISWSSGSTYYADSVKGRFTISRDNAKNTVYLQLNSLKPEDTAVYYCNKDVYGYYRTGPRGYDYWGQGTQVTVSS	high polyreactivity
QVQLQESGGGLVQAGGSLRLSCAASGNIYDADIMGWYRQAPGKERELVTSITDGGSTNYADSVKGRFTISRDNAKNTVYLQMNSLKPEDTAVYYSAAIAYPDIPTSFDYNSDYSYWGQGTQVTVSS	low polyreactivity
QVQLVESGGGLVQAGGSLRLSCAASGFIFYKNAMGWSRQAPGKEREFVAAITWSGGNTYYADSVKGRFTISRDNAKNTVYLQLNSLKPEETAVYYCAARDSKWGQGTQVTVSS	low polyreactivity
QVQLVESGGRLVQAGGSLRLSCAASGRISWSYAMGWYRQAPGKERELVAAITSGGTTNYADSVKGRFTISRDNAKNTVYLQMNSLKPEDTAVYYCARDSYQLGLIRDPLEYDYWGQGTQVTVSS	low polyreactivity
QVQLVESGGGLVQAGGSLRLSCAASGSTFVYAMVWYRPAPGKERELVAAITTGDSTYYADSVKGRFTISRDNAKNTVYLQMNSLKPEDTAVYYCAAQWYTRDGEYGYWGQGTQVTVSS	low polyreactivity
QVQLVESGGGLVQAGGSLRLSCAASGSIFSGNAMGWYRQAPGKERELVAAITSGGSTYYADSVKGRFTISRDNAKNTVYLQMNSLKPEDTAVYYCAAVWYQYYYDRRHDYWGQGTQVTVSS	low polyreactivity

Sequence	polyreactivity (PSR sort gate)
QVQLVESGGGLVQAGGSLRLSCAASGFIYSKYAMRWYRQAPGKERELVAAITFSGGSTYYADSVKGRFTISRDNAKKTVYLQMNSLKPEDTAVYYCNAEGSYPDVSPVLGYDYWGQGTQVTVSS	low polyreactivity
QVQLVESGGGLVQAGGSLRLSSAASGSTIRVYAMGWYRQAPGKERELVATISWGGGRTYYADSVKGRFTISLDNAKNTVYLQMNSLKQEDTSVYYCAADQRWTTDQPTAGDYWGQGTQVTVSS	low polyreactivity
QVQLVESGGGLVQAGGSLRLSCAASGSTFYYNVMGWYRQAPGKERELVAAITLSGGSTYADSVKGRFTISRDNAKNTVYLQMNSLKPEDTAVYYCAKKGRYGRWGYKFDYWGQGTQVTVSS	low polyreactivity
QVQLVESGGGLVQAGGSLRLSCAASGLIFSRNAMGRYRQAPGKERELVAAITTGGSTYYADSVKGRFTISRDNAKNTVYLQMNSLKPEDTAVYYCAAAPGYIYEYWGQGTQVTVSS	low polyreactivity
QVQLVESGGGLVQAGGSLRLSCAASGRTFKGYAMGWYRQAPGKERELVAGISTGGNTNYADSVMGRFTISRDNAKNTVYLQMNSLKPEDTAVYYCNAVYRGFTHYTGYEYWGQGTQVTVSS	high polyreactivity
QVQLVESGGGLVQAGGSLRLSCAASGFTFYYYAMGWYRQAPGKERELVAAISGGGGSTYYADSVKGRFTISRDNAKNTVYLQMNSLKPEDTAVYYCAAVGSWRYNYDYDYWGQGTQVTVSS	high polyreactivity
QVQHVESGGGLVQAGGSLRLSCAASGLTFLSNAMGWYRPARGNEWELVAAINSGARKFYADSVKGRFTISRDNAKNTVYLQMNCLKPEDTAVYYCNADYGKPSYYDDGDYWGEGTQVTVSS	low polyreactivity
QVQLEESGGGLVQAGGSLRLSCAASGRIFRYYTMGGYRQAPGKERELVDAISGSGGSTYYADSVKGRFTISRDNAKNTVYLQMNSLKPEDTSVYYCAAAHRYWGQGTQVTVSS	high polyreactivity
QVQLVESGGGLVQAGGSLRLSCAASGSTFRTNAMGWYRQAPGKERELVADISKRGGNTYYADSVKGRFTISRDNAKNTVYLQMNCLKPEDTALYDCAAYRVYGYGGGYDYYYWVQGTQVTVSS	high polyreactivity
QVQLVESGGGLVQAGGSLRFSCAASGTFVPYAMGWYRQAPGKEMELVARITWRGGSTYYADSVKGRFTISRDNAKNTVYLQMNSLKPEDTAVYYCATVSDNRYYYWGQGSQVTVSS	low polyreactivity
QVQLVESGGGLVQAGGSLRLSCAASGRTFNVYAMGWYRQAPGKERELVAVITNGGSTNYADSVKGRFTISRDNAKNTVYLQMNSLKPEDTAVYYCAADYYASLTREDRDDYWGQGTQVTVSS	low polyreactivity
QVQLVEAGGGLVQAGGSLRLSCAASGRTFTYYTMGWYRQAPGKERELVATITSGGITNYADSVKGRFTISRDNAKNTVYLQMNSLKTEDTAVYYCDKRWVNKYYYWGQGTQVTVSS	high polyreactivity
QVQLVESGGGLVQAGGSLRLSCAASGFTFWYYAMGWYRQAPGKERELVARITSRGADTYADSVKGRFTISRDNAKNTVYLQMNSLKPEDTAVYDCNADIISVSVYYFIVEYDYWGQGTQVTVSS	low polyreactivity
QVQLVESGGGLVQAGGSLRLSCAASGSIFYYYTMGWDRQAPGKERELVADITYRGGSTYYADSVKGRFTISRDNAKNTVYLLMNSLKPEDTAVNFCAAASLVRGGHFDYWGQGTQVTVSS	high polyreactivity
QVQLEESGGGLVQAGGSLRLSCAASGFIFGRNAMGWYRQAPGKERELVAAITRSGGSTYYADSVKGRFTISRDNAKNTVYLQMNSLKPEDTAVYYCAKGVFTWGVFRVGIRDDYWGQGTQVTVSS	high polyreactivity
QVQLVESGGGLVQAGGSLRLSCAASGSTLVIYAMGWYRQAPGKERELVAAINFSDGSTSYADSVKGRFSISRDNAKNTVYLQMNRLKPEDTAVYYLGQGTQVTVSS	low polyreactivity
QVQLVESGGGLVQAGGSLRISCAASGRTFRPYPMGWYRQAPGKDRELVAAIDSSGTSTYYADSVKGRFTISRDNAKNTVYLQMNSLKPEDTAVYYCAKAWPDHWYSRYDYWGQGTQVTVSS	low polyreactivity
QVQLVESRGGLVQAGGSLRLRCAASGRIIIAYMAWYRQAPGKERELVAAIDSGASTYYADSVKGRFTISRDNAKNNVYLQMNSLIAEDTAVYYCASDVVYDYGGMDYWGQGTQVTVSS	low polyreactivity
QVQLVESGGGLVQAGGSLRLSCASSGLIFGRNVMGWYRQAPGKERELVAAISWSGGRTYYADSVKGRFTISRDNAKNTVYLQMNSLKPEDTAVYYCAADDGPGFDYWGQGTQVTVSS	high polyreactivity
QVQLVESGGGLVQAGGSLRLSCAASGFNFPHYAMGWYIQAPGKERELVAAISWSGTRTYYADSVKGRFTISRDNAKNTVYLQMNSLKPEDTAVYYCNADSITEGNSRYSHFDYWGQGTQVTVSS	low polyreactivity
QVQLVESGGGLVQAGGSLRLSCAASGRIFKTYAMGWYRPAPGKERELVAAITASGGRTYYADSVKGRFTISRDNAKNTVYLQMNSLKPEDTAVYYCAKRPSYYARNSAYAYLSYGYWGQGTQVTVSS	low polyreactivity
